Reference: US11440969B2, “Use of human epididymis protein 4 (HE4) for assessing responsiveness of MUC 16-positive cancer treatment” (Genentech, Inc., priority 2016, dated 2022)

Test: Safety of DMUC5754A in patients: related adverse events, DLT, MTD/RP2D (NCI CTCAE v4.0)
Assay type: in vivo, human
Settings: for Median time to onset of first PN on study / On study PN = No, patients n (%) / On study PN = Yes, patients n (%): q3w dosing
Method: This multicenter, open-label, dose-escalation study was designed to identify the recommended Phase II dose (RP2D) of DMUC5754A in patients with platinum-resistant OC or unresectable pancreatic cancer. In the single-agent dose escalation stage utilizing a 3+3 enrollment scheme, patients were given intravenous DMUC5754A (Genentech Inc.) 0.3-3.2 mg/kg every 3 weeks (q3w) to evaluate the safety, tolerability, and pharmacokinetics of DMUC5754A. Following determination of the maximum tolerated dose (MTD), dose-expansion cohorts were enrolled at the RP2D of 2.4 mg/kg to further characterize the safety and preliminary clinical efficacy of DMUC5754A.
Dosing on a weekly (qlw) schedule was also evaluated at the RP2D, employing a 3+3 design to determine the MTD of weekly dosing, followed by a cohort expansion to further characterize the safety and activity of q1w dosing.
Safety was evaluated according to NCI CTCAE v4.0. […] The maximum tolerated dose (MTD) was defined as the dose at which ≤1 of 6 patients at an assigned dose with protocol-defined DLT. Patients who experienced a DLT or adverse event (AE) meeting DLT criteria after the DLT assessment window were allowed to delay dosing for up to 2 weeks or undergo a dose reduction.

[1] = q3w patients, over all dose levels

B1: DMUC5754A: antibody-drug conjugate: humanized IgG1 anti-MUC16 monoclonal antibody and MMAE, linked through protease labile linker maleimidocaproyl-valine-citrulline-p-aminobenzyloxycarbonyl (conjugate, chains of the INN, looked up)
VH: EVQLVESGGGLVQPGGSLRLSCAASGYSITNDYAWNWVRQAPGKGLEWVGYISYSGYTTYNPSLKSRFTISRDTSKNTLYLQMNSLRAEDTAVYYCARWTSGLDYWGQGTLVTVSS
VL: DIQMTQSPSSLSASVGDRVTITCKASDLIHNWLAWYQQKPGKAPKLLIYGATSLETGVPSRFSGSGSGTDFTLTISSLQPEDFATYYCQQYWTTPFTFGQGTKVEIK
modifications: MMAE via mc-vc-PABC linker
Pyrexia (related AE), patients (q3w 0.3 mg/kg (n = 3)): 0 | Vomiting (related AE), patients (q3w 0.3 mg/kg (n = 3)): 0 | Alopecia (related AE), patients (q3w 0.6 mg/kg (n = 3)): 0 | Any adverse events (related), patients (q3w 0.6 mg/kg (n = 3)): 1 | Arthralgia (related AE), patients (q3w 0.6 mg/kg (n = 3)): 0 | Asthenia (related AE), patients (q3w 0.6 mg/kg (n = 3)): 0 | Decreased appetite (related AE), patients (q3w 0.6 mg/kg (n = 3)): 0 | Diarrhea (related AE), patients (q3w 0.6 mg/kg (n = 3)): 1 | Dysgeusia (related AE), patients (q3w 0.6 mg/kg (n = 3)): 0 | Fatigue (related AE), patients (q3w 0.6 mg/kg (n = 3)): 1 | Hypokalemia (related AE), patients (q3w 0.6 mg/kg (n = 3)): 0 | Hypomagnesaemia (related AE), patients (q3w 0.6 mg/kg (n = 3)): 0 | Hypophosphatemia (related AE), patients (q3w 0.6 mg/kg (n = 3)): 0 | Nausea (related AE), patients (q3w 0.6 mg/kg (n = 3)): 0 | Neutropenia (related AE), patients (q3w 0.6 mg/kg (n = 3)): 0 | Peripheral neuropathy (related AE), patients (q3w 0.6 mg/kg (n = 3)): 0 | Pyrexia (related AE), patients (q3w 0.6 mg/kg (n = 3)): 0 | Vomiting (related AE), patients (q3w 0.6 mg/kg (n = 3)): 1 | Alopecia (related AE), patients (q3w 1.2 mg/kg (n = 3)): 0 | Any adverse events (related), patients (q3w 1.2 mg/kg (n = 3)): 3 | Arthralgia (related AE), patients (q3w 1.2 mg/kg (n = 3)): 0 | Asthenia (related AE), patients (q3w 1.2 mg/kg (n = 3)): 0 | Decreased appetite (related AE), patients (q3w 1.2 mg/kg (n = 3)): 2 | Diarrhea (related AE), patients (q3w 1.2 mg/kg (n = 3)): 1 | Dysgeusia (related AE), patients (q3w 1.2 mg/kg (n = 3)): 0 | Fatigue (related AE), patients (q3w 1.2 mg/kg (n = 3)): 1 | Hypokalemia (related AE), patients (q3w 1.2 mg/kg (n = 3)): 0 | Hypomagnesaemia (related AE), patients (q3w 1.2 mg/kg (n = 3)): 0 | Hypophosphatemia (related AE), patients (q3w 1.2 mg/kg (n = 3)): 0 | Nausea (related AE), patients (q3w 1.2 mg/kg (n = 3)): 0 | Neutropenia (related AE), patients (q3w 1.2 mg/kg (n = 3)): 0 | Peripheral neuropathy (related AE), patients (q3w 1.2 mg/kg (n = 3)): 0 | Pyrexia (related AE), patients (q3w 1.2 mg/kg (n = 3)): 0 | Vomiting (related AE), patients (q3w 1.2 mg/kg (n = 3)): 1 | Alopecia (related AE), patients (q3w 1.8 mg/kg (n = 3)): 1 | Any adverse events (related), patients (q3w 1.8 mg/kg (n = 3)): 2 | Arthralgia (related AE), patients (q3w 1.8 mg/kg (n = 3)): 2 | Asthenia (related AE), patients (q3w 1.8 mg/kg (n = 3)): 0 | Decreased appetite (related AE), patients (q3w 1.8 mg/kg (n = 3)): 1 | Diarrhea (related AE), patients (q3w 1.8 mg/kg (n = 3)): 2 | Dysgeusia (related AE), patients (q3w 1.8 mg/kg (n = 3)): 0 | Fatigue (related AE), patients (q3w 1.8 mg/kg (n = 3)): 1 | Hypokalemia (related AE), patients (q3w 1.8 mg/kg (n = 3)): 0 | Hypomagnesaemia (related AE), patients (q3w 1.8 mg/kg (n = 3)): 2 | Hypophosphatemia (related AE), patients (q3w 1.8 mg/kg (n = 3)): 1 | Nausea (related AE), patients (q3w 1.8 mg/kg (n = 3)): 1 | Neutropenia (related AE), patients (q3w 1.8 mg/kg (n = 3)): 0 | Peripheral neuropathy (related AE), patients (q3w 1.8 mg/kg (n = 3)): 2 | Pyrexia (related AE), patients (q3w 1.8 mg/kg (n = 3)): 2 | Vomiting (related AE), patients (q3w 1.8 mg/kg (n = 3)): 0 | Alopecia (related AE), patients (q3w 2.4 mg/kg (n = 39)): 9 | Any adverse events (related), patients (q3w 2.4 mg/kg (n = 39)): 39 | Arthralgia (related AE), patients (q3w 2.4 mg/kg (n = 39)): 5 | Asthenia (related AE), patients (q3w 2.4 mg/kg (n = 39)): 5 | Decreased appetite (related AE), patients (q3w 2.4 mg/kg (n = 39)): 11 | Diarrhea (related AE), patients (q3w 2.4 mg/kg (n = 39)): 8 | Dysgeusia (related AE), patients (q3w 2.4 mg/kg (n = 39)): 7 | Fatigue (related AE), patients (q3w 2.4 mg/kg (n = 39)): 26 | Hypokalemia (related AE), patients (q3w 2.4 mg/kg (n = 39)): 4 | Hypomagnesaemia (related AE), patients (q3w 2.4 mg/kg (n = 39)): 6 | Hypophosphatemia (related AE), patients (q3w 2.4 mg/kg (n = 39)): 2 | Nausea (related AE), patients (q3w 2.4 mg/kg (n = 39)): 15 | Neutropenia (related AE), patients (q3w 2.4 mg/kg (n = 39)): 8 | Peripheral neuropathy (related AE), patients (q3w 2.4 mg/kg (n = 39)): 17 | Pyrexia (related AE), patients (q3w 2.4 mg/kg (n = 39)): 7 | Vomiting (related AE), patients (q3w 2.4 mg/kg (n = 39)): 10 | Alopecia (related AE), patients (q3w 3.2 mg/kg (n = 3)): 1 | Any adverse events (related), patients (q3w 3.2 mg/kg (n = 3)): 3 | Arthralgia (related AE), patients (q3w 3.2 mg/kg (n = 3)): 1 | Asthenia (related AE), patients (q3w 3.2 mg/kg (n = 3)): 1 | Decreased appetite (related AE), patients (q3w 3.2 mg/kg (n = 3)): 1 | Diarrhea (related AE), patients (q3w 3.2 mg/kg (n = 3)): 1 | Dysgeusia (related AE), patients (q3w 3.2 mg/kg (n = 3)): 1 | Fatigue (related AE), patients (q3w 3.2 mg/kg (n = 3)): 2 | Hypokalemia (related AE), patients (q3w 3.2 mg/kg (n = 3)): 2 | Hypomagnesaemia (related AE), patients (q3w 3.2 mg/kg (n = 3)): 0 | Hypophosphatemia (related AE), patients (q3w 3.2 mg/kg (n = 3)): 3 | Nausea (related AE), patients (q3w 3.2 mg/kg (n = 3)): 3 | Neutropenia (related AE), patients (q3w 3.2 mg/kg (n = 3)): 1 | Peripheral neuropathy (related AE), patients (q3w 3.2 mg/kg (n = 3)): 1 | Pyrexia (related AE), patients (q3w 3.2 mg/kg (n = 3)): 2 | Vomiting (related AE), patients (q3w 3.2 mg/kg (n = 3)): 3 | Alopecia (related AE), patients (q3w All Patients (n = 54)): 11 | Any adverse events (related), patients (q3w All Patients (n = 54)): 51 | Arthralgia (related AE), patients (q3w All Patients (n = 54)): 8 | Asthenia (related AE), patients (q3w All Patients (n = 54)): 6 | Decreased appetite (related AE), patients (q3w All Patients (n = 54)): 16 | Diarrhea (related AE), patients (q3w All Patients (n = 54)): 13 | Dysgeusia (related AE), patients (q3w All Patients (n = 54)): 8 | Fatigue (related AE), patients (q3w All Patients (n = 54)): 31 | Hypokalemia (related AE), patients (q3w All Patients (n = 54)): 6 | Hypomagnesaemia (related AE), patients (q3w All Patients (n = 54)): 9 | Hypophosphatemia (related AE), patients (q3w All Patients (n = 54)): 6 | Nausea (related AE), patients (q3w All Patients (n = 54)): 20 | Neutropenia (related AE), patients (q3w All Patients (n = 54)): 9 | Peripheral neuropathy (related AE), patients (q3w All Patients (n = 54)): 21 | Pyrexia (related AE), patients (q3w All Patients (n = 54)): 11 | Vomiting (related AE), patients (q3w All Patients (n = 54)): 15 | patients with AEs leading to treatment discontinuation (q3w cohorts, 3/54 patients): 5.6% | Median time to onset of first PN on study (Prior neuropathy = No): 71 days | On study PN = No, patients n (%) (Prior neuropathy = No): 11 (20%) | On study PN = Yes, patients n (%) (Prior neuropathy = No): 18 (33%) | Median time to onset of first PN on study (Prior neuropathy = Yes): 148 days | On study PN = No, patients n (%) (Prior neuropathy = Yes): 20 (37%) | On study PN = Yes, patients n (%) (Prior neuropathy = Yes): 5 (9%) | Median time to onset of first PN on study (Total): 99 days | On study PN = No, patients n (%) (Total): 31 (57%) | On study PN = Yes, patients n (%) (Total): 23 (43%) | Drug-related SAE hypocalcemia, patients (q3w patients): 1 | Drug-related SAE neutropenia, patients (q3w patients): 1 | Drug-related SAE small intestine obstruction, patients (q3w patients): 2 | alopecia, related AE [1]: 20.4% | decreased appetite, related AE [1]: 29.6% | diarrhea, related AE [1]: 24.1% | fatigue, related AE [1]: 57.4% | nausea, related AE [1]: 37.0% | peripheral sensory neuropathy, related AE [1]: 27.8% | pyrexia, related AE [1]: 20.4% | vomiting, related AE [1]: 27.8% | Grade ≥3 related fatigue (q3w patients, total): 7.4% | Grade ≥3 related neutropenia (q3w patients, total): 9.3% | RP2D (q3w schedule): 2.4 mg/kg | Grade ≥3 related fatigue, patients (q3w, at 2.4 mg/kg): 4 | Grade ≥3 related neutropenia, patients (q3w, at 2.4 mg/kg): 4
